According to IntAct's records for PubMed 20729810:

B1: G protein-coupled receptor kinase 6 (Homo sapiens), P43250 (parent)
chain: MELENIVANTVLLKAREGGGGNRKGKSKKWRQMLQFPHISQCEELRLSLERDYHSLCERQPIGRLLFREFCATRPELSRCVAFLDGVAEYEVTPDDKRKACGRQLTQNFLSHTGPDLIPEVPRQLVTNCTQRLEQGPCKDLFQELTRLTHEYLSVAPFADYLDSIYFNRFLQWKWLERQPVTKNTFRQYRVLGKGGFGEVCACQVRATGKMYACKKLEKKRIKKRKGEAMALNEKQILEKVNSRFVVSLAYAYETKDALCLVLTLMNGGDLKFHIYHMGQAGFPEARAVFYAAEICCGLEDLHRERIVYRDLKPENILLDDHGHIRISDLGLAVHVPEGQTIKGRVGTVGYMAPEVVKNERYTFSPDWWALGCLLYEMIAGQSPFQQRKKKIKREEVERLVKEVPEEYSERFSPQARSLCSQLLCKDPAERLGCRGGSAREVKEHPLFKKLNFKRLGAGMLEPPFKPDPQAIYCKDVLDIEQFSTVKGVELEPTDQDFYQKFATGSVPIPWQNEMVETECFQELNVFGLDGSVPPDLDWKGQPPAPPKKGLLQRLFSRQDCCGNCSDSEEELPTRL

Variants of: B1
Conditions: with rom1_bovin ROM1, P52205
Sequence of rom1_bovin ROM1, P52205 (P52205 whole entry): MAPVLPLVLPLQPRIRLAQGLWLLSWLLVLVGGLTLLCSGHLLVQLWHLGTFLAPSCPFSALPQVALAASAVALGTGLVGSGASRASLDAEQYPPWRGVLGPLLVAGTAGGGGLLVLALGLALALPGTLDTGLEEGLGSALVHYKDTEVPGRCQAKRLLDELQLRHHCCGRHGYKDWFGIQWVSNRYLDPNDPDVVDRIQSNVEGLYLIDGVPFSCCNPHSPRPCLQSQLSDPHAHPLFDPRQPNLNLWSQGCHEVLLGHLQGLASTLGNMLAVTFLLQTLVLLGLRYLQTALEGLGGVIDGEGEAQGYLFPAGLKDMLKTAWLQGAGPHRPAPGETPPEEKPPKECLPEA

Row | effect of a mutation on the interaction | Variant
1 | disrupting interaction | N9A

Variants of: B1
Conditions: with rom1_bovin ROM1, P52205
Remark: another data set of the same source

Row | effect of a mutation on the interaction | Variant
2 | decreasing interaction | E4A

Variants of: B1
Conditions: with rom1_bovin ROM1, P52205
Remark: another data set of the same source

Row | effect of a mutation on the interaction | Variant
3 | decreasing interaction | I6A

Variants of: B1
Conditions: with rom1_bovin ROM1, P52205
Remark: another data set of the same source

Row | effect of a mutation on the interaction | Variant
4 | disrupting interaction | I6E
5 | disrupting interaction | V7E

Variants of: B1
Conditions: with rom1_bovin ROM1, P52205
Remark: another data set of the same source

Row | effect of a mutation on the interaction | Variant
6 | decreasing interaction | L13A

Variants of: B1
Conditions: with rom1_bovin ROM1, P52205
Remark: another data set of the same source

Row | effect of a mutation on the interaction | Variant
7 | decreasing interaction | L3A

Variants of: B1
Conditions: with rom1_bovin ROM1, P52205
Remark: another data set of the same source

Row | effect of a mutation on the interaction | Variant
8 | decreasing interaction | V7A

Variants of: B1
Conditions: with rom1_bovin ROM1, P52205
Remark: another data set of the same source

Row | effect of a mutation on the interaction | Variant
9 | disrupting interaction | L12A
